The values that follow come from IntAct's records for PubMed 11124807.

B1: Sex-determining transformer protein 2 (Caenorhabditis elegans), P34709 (parent)
chain: MKLKYNKLLVSVVIVTFVTFGLLLAECFGKSIDYQEKSIFPSFVSQGFFETRTNNEEYIIEKIAQTQENGVDMRSTLHFTQHGYLLNNISNLKIKFRQKTYTLNDVCFKPHITIFQQSSSSDQNEYPHYIQRLLLEMQRLSPCLIVTPLNCFYDIYRIHGEISNWNKNTDFLNRRLRNSYIEAIGENDERPYVKSNYGPSLIKSWADHMFDLPSKSFTNSTKDALFQKIKLWLLSIEPRQKTCAASIHSCDTPLDSEHYFNICTDMQSVDNFAEKKTKFKLEDVDEEFAMNLDCVDDQEQFIEWMQELEIRKMYSHVTEKPDYPNVVNQTCDKIFHDLNSTGIEFFDGSRSFSSTKSQFDTMQTEIVLLTPEMLLSAMQHSDFVNGFESIWTIEKAEELIHEFRLALKEETEKFKENRMSKMIRVTSRVLDNTVTTKLQSFSEKQTIHFVVNVHSLIVILFTIFVWSGAPLRSAFMFFVRDALTCLLFCFVCSTDGVIVLDTELIKYIIVLTLANLYFTTRSSFCTERLSRCIQREKRFPINSNFASLITVDTMTDSRQIQYFLSTVTKYQAAQDSYSNELFERFPKNWGCTSILIFPIVFVYWYFIDSNFDKICVSVLPSFCLAAGEELFAKNMFWKEREAMQAKQRLENEEQAESITGSSLEKLFAGNKPVSNTDKANIVKKSSIIRNQKPCLQDLSPGTYDVSNFMKYPHQASRIFREKIIGLYLRILKLRTLGVILCIPAILLIVISIGLLFIPVKRETLHTDSKQDDIFIEFEIFNFSTNWKIVNQNLKQFSEDIESIGTLYTISNWQKSFERFEQETNKNASAEWNILFKWINDEPINSAVTLFSEKSSGNQTIANPFKFRLRYGFDAKNETTVIEIVQKIDELLSKCSKNLSPKAVGVLYEHYHRIAVVWNLFAFNQLTTAGIFIILLSIITFIFAITPTIKATFLFSLLVVGTQIEVAALVHLFSLDHHQIYTNLALFAGFLAAWDPFCALLRYRRRILYKSETRRTPELASKRRVLLPIVATADIAQFFVLLITAFSILAIICSIVPELNIFFVPTVILIVIQIVAVFNSIIVSIATKQMFESEVRHYLHRDLRGSTTAVRVYNLVQKQRLASSLDEPQVELDEFSIKRSSPPCRYYAPPPKYSCKKRSRSSDEDEDSDPNQPGPSNRRSPKTGNKRVRGNGDNTELYIPNRYELIVSGKSVGGNTSAAWNGPGSTLEQNMNALEECFELGVDEYDFDEHDGDEGCELVQDMLDRERNLMNKRSTAQRRESRNIEKMKKSQENLDKEKSEEKISESKKNQDDSIESPNLPGTPANLPVDEPLPPVGRLYIVEHVLPEEYRRDPLTEPPSMEDCIRAHSDPNLPPHPRADQYPASFTRPMVEYCEDIYWTHRTGQLPPGLQVPRRPYDYYHITERTPPPEDLNWVPPAESPPIPIPQQAFDLLEERRRNHREQQDEAREGDLSDPEV
partner: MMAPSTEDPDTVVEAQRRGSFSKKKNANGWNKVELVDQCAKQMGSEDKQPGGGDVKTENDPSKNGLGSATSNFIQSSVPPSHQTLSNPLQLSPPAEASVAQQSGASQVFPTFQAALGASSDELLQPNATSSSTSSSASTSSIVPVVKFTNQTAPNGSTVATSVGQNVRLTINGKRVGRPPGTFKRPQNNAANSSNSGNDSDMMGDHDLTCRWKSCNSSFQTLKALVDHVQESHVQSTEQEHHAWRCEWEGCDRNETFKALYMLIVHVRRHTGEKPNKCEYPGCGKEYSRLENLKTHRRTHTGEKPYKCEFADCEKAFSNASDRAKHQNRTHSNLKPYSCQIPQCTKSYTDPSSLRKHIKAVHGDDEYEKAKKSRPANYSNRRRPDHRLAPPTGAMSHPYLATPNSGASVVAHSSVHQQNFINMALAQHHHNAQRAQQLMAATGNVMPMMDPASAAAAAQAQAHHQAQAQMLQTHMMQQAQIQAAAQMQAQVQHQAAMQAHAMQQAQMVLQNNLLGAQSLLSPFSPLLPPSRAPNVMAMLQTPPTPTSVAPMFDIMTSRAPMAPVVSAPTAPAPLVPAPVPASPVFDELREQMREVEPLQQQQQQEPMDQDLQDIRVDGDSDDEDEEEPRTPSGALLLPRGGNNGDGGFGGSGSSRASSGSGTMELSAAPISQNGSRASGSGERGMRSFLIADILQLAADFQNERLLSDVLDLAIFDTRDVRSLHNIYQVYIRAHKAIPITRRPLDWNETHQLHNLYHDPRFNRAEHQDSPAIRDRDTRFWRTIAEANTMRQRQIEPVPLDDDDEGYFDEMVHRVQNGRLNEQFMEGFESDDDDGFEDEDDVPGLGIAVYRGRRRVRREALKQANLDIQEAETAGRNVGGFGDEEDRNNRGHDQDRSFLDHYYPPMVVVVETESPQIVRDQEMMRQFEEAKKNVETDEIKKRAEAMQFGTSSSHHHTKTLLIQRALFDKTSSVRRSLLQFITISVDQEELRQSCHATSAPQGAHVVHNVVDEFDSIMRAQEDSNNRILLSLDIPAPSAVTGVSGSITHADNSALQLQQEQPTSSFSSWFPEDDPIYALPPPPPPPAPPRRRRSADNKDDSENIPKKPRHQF
B2: Sex-determining transformer protein 1 (Caenorhabditis elegans), P34708 (parent)
chain: B1 partner
partner: B1 chain

In one test the parent is B1. The settings on record: with tra1_caeel tra-1, P34708.
Regarding C1392Y;E1393K;R1400Q, the “effect of a mutation on the interaction” value was “decreasing interaction”.

The next test covers variants of B2. The following applies: with tra2_caeel tra-2, P34709.
Turning to L723F, the “effect of a mutation on the interaction” value is reported as “decreasing interaction”.
